Experimental findings from patent publication US20240400675A1 (published 2024) are described below.

In one assay the target is T1, human CLDN6 (UniProt P56747 1-220).
T1 chain: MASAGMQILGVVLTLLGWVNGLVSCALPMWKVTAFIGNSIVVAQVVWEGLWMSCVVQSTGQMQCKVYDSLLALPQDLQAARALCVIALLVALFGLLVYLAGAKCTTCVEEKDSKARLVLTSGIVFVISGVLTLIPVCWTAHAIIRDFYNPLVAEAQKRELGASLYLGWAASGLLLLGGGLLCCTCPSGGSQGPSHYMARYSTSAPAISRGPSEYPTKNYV
The assay is described as follows: HEK293E cell binding; avid.

The next assay addresses T2, human CLDN9 (UniProt O95484 1-217).
T2 chain: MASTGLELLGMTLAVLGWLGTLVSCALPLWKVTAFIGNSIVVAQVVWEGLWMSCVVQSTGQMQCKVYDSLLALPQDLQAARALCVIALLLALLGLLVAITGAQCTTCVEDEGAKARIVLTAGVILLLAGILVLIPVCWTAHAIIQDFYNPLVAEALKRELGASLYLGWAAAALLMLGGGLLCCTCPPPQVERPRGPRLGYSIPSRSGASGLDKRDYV
As to the kind of experiment: HEK293E cell binding; avid.

B1: XENP35070 H2_L1.27 (antibody, V domains shown)
VH: EVQLVQSGAEVKKPGESLRISCKTSGYTFTEYTMHWVRQMPGKSLEWMGGIDPNNGNTHYNQKFQGHVTISVDKSISTAYLQWSSLKASDTAMYYCARIYYFGRLYFDFWGAGTLVTVSS
VL: DIQMTQSPSSLSASVGDRVTITCQASEDIYNRLAWYQQKPGKVPKLLISGATSLESGVPSRFSGSGSGKDYTFTISSLQPEDIATYYCQQYWSSPLTFGGGTKVEIKR
B1: the values for the EC50 in the assay with human CLDN6 and with human CLDN9 were 1.18 µg/mL and 29.7 µg/mL, respectively.

B2: XENP35064 H2_L1.21 (antibody, V domains shown)
VH: EVQLVQSGAEVKKPGESLRISCKTSGYTFTEYTMHWVRQMPGKSLEWMGGIDPNNGNTHYNQKFQGHVTISVDKSISTAYLQWSSLKASDTAMYYCARIYYFGRLYFDFWGAGTLVTVSS
VL: DIQMTQSPSSLSASVGDRVTITCQASEDIYNRLAWYQQKPGKVPKLLISGATNLETGVPSRFSGSGSGKDYTFTISSLQPEDIATYYCQQYWSSPLTFGGGTKVEIKR
B2: the EC50 with human CLDN6 was found to be 0.979 µg/mL; in the assay with human CLDN9, 14.1 µg/mL.

B3: XENP35088 H1.4_L1 (antibody, V domains shown)
VH: QVQLVQSGAEVKKPGASVKVSCKTSGYTFTEYTMHWVRQAPGQSLEWMGGIDANNGNTHYNQKFQGRVTITVDKSASTAYMELSSLRSEDTAVYYCARIYYFGRLYFDFWGAGTLVTVSS
VL: DIQMTQSPSSLSASVGDRVTITCQASEDIYNRLAWYQQKPGKVPKLLISGATSLETGVPSRFSGSGSGKDYTFTISSLQPEDIATYYCQQYWSSPLTFGGGTKVEIKR
As to B3, the EC50 in the assay with human CLDN6 was determined as 1.29 µg/mL; with human CLDN9 it was 29.2 µg/mL.

B4: XENP35066 H2_L1.23 (antibody, V domains shown)
VH: EVQLVQSGAEVKKPGESLRISCKTSGYTFTEYTMHWVRQMPGKSLEWMGGIDPNNGNTHYNQKFQGHVTISVDKSISTAYLQWSSLKASDTAMYYCARIYYFGRLYFDFWGAGTLVTVSS
VL: DIQMTQSPSSLSASVGDRVTITCQASEDIYNRLAWYQQKPGKVPKLLISGATSRETGVPSRFSGSGSGKDYTFTISSLQPEDIATYYCQQYWSSPLTFGGGTKVEIKR
Regarding B4, the EC50 with human CLDN6 was 1.59 µg/mL; in the assay with human CLDN9, 31.8 µg/mL.

B5: XENP35092 H1.8_L1 (antibody, V domains shown)
VH: QVQLVQSGAEVKKPGASVKVSCKTSGYTFTEYTMHWVRQAPGQSLEWMGGIDPNNDNTHYNQKFQGRVTITVDKSASTAYMELSSLRSEDTAVYYCARIYYFGRLYFDFWGAGTLVTVSS
VL: DIQMTQSPSSLSASVGDRVTITCQASEDIYNRLAWYQQKPGKVPKLLISGATSLETGVPSRFSGSGSGKDYTFTISSLQPEDIATYYCQQYWSSPLTFGGGTKVEIKR
For the molecule B5, the EC50 is 1.16 µg/mL in the assay with human CLDN6 and 25 µg/mL with human CLDN9.

B6: XENP35065 H2_L1.22 (antibody, V domains shown)
VH: EVQLVQSGAEVKKPGESLRISCKTSGYTFTEYTMHWVRQMPGKSLEWMGGIDPNNGNTHYNQKFQGHVTISVDKSISTAYLQWSSLKASDTAMYYCARIYYFGRLYFDFWGAGTLVTVSS
VL: DIQMTQSPSSLSASVGDRVTITCQASEDIYNRLAWYQQKPGKVPKLLISGATQLETGVPSRFSGSGSGKDYTFTISSLQPEDIATYYCQQYWSSPLTFGGGTKVEIKR
Consider B6, for which the EC50 stood at 1.48 µg/mL with human CLDN6 and 69.1 µg/mL with human CLDN9.

B7: XENP35087 H1.3_L1 (antibody, V domains shown)
VH: QVQLVQSGAEVKKPGASVKVSCKTSGYTFTEYTMHWVRQAPGQSLEWMGGIDSNNGNTHYNQKFQGRVTITVDKSASTAYMELSSLRSEDTAVYYCARIYYFGRLYFDFWGAGTLVTVSS
VL: DIQMTQSPSSLSASVGDRVTITCQASEDIYNRLAWYQQKPGKVPKLLISGATSLETGVPSRFSGSGSGKDYTFTISSLQPEDIATYYCQQYWSSPLTFGGGTKVEIKR
For B7, the 50% effective concentration (EC50) with human CLDN6 came out at 1.2 µg/mL; with human CLDN9, 31.8 µg/mL.

B8: XENP35101 having H2.8_L1 (antibody, V domains shown)
VH: EVQLVQSGAEVKKPGESLRISCKTSGYTFTEYTMHWVRQMPGKSLEWMGGIDPNNDNTHYNQKFQGHVTISVDKSISTAYLQWSSLKASDTAMYYCARIYYFGRLYFDFWGAGTLVTVSS
VL: DIQMTQSPSSLSASVGDRVTITCQASEDIYNRLAWYQQKPGKVPKLLISGATSLETGVPSRFSGSGSGKDYTFTISSLQPEDIATYYCQQYWSSPLTFGGGTKVEIKR
For B8, the figures for the EC50 with human CLDN6 and with human CLDN9 were 24.8 µg/mL and 1.06 µg/mL, respectively.

B9: XENP35097 H2.4_L1 (antibody, V domains shown)
VH: EVQLVQSGAEVKKPGESLRISCKTSGYTFTEYTMHWVRQMPGKSLEWMGGIDGNNGNTHYNQKFQGHVTISVDKSISTAYLQWSSLKASDTAMYYCARIYYFGRLYFDFWGAGTLVTVSS
VL: DIQMTQSPSSLSASVGDRVTITCQASEDIYNRLAWYQQKPGKVPKLLISGATSLETGVPSRFSGSGSGKDYTFTISSLQPEDIATYYCQQYWSSPLTFGGGTKVEIKR
Regarding B9, the EC50 came to 1.1 µg/mL in the assay with human CLDN6 and 72.9 µg/mL with human CLDN9.

B10: XENP35096 H2.3_L1 (antibody, V domains shown)
VH: EVQLVQSGAEVKKPGESLRISCKTSGYTFTEYTMHWVRQMPGKSLEWMGGIDSNNGNTHYNQKFQGHVTISVDKSISTAYLQWSSLKASDTAMYYCARIYYFGRLYFDFWGAGTLVTVSS
VL: DIQMTQSPSSLSASVGDRVTITCQASEDIYNRLAWYQQKPGKVPKLLISGATSLETGVPSRFSGSGSGKDYTFTISSLQPEDIATYYCQQYWSSPLTFGGGTKVEIKR
As to B10, the values for the EC50 in the assay with human CLDN6 and in the assay with human CLDN9 were 1.24 µg/mL and 110 µg/mL, respectively.

B11: XENP35047 H2_L1.4 (antibody, V domains shown)
VH: EVQLVQSGAEVKKPGESLRISCKTSGYTFTEYTMHWVRQMPGKSLEWMGGIDPNNGNTHYNQKFQGHVTISVDKSISTAYLQWSSLKASDTAMYYCARIYYFGRLYFDFWGAGTLVTVSS
VL: DIQMTQSPSSLSASVGDRVTITCQASEDVYNRLAWYQQKPGKVPKLLISGATSLETGVPSRFSGSGSGKDYTFTISSLQPEDIATYYCQQYWSSPLTFGGGTKVEIKR
On to B11, for which the EC50 was determined as 0.795 µg/mL with human CLDN6 and 17.6 µg/mL with human CLDN9.

B12: XENP35091 H1.7_L1 (antibody, V domains shown)
VH: QVQLVQSGAEVKKPGASVKVSCKTSGYTFTEYTMHWVRQAPGQSLEWMGGIDPNQGNTHYNQKFQGRVTITVDKSASTAYMELSSLRSEDTAVYYCARIYYFGRLYFDFWGAGTLVTVSS
VL: DIQMTQSPSSLSASVGDRVTITCQASEDIYNRLAWYQQKPGKVPKLLISGATSLETGVPSRFSGSGSGKDYTFTISSLQPEDIATYYCQQYWSSPLTFGGGTKVEIKR
B12: the results for the EC50 in the assay with human CLDN6 and with human CLDN9 were 1.43 µg/mL and 31.4 µg/mL, respectively.

B13: XENP35093 (having C6-30 H1.9_L1) (antibody, V domains shown)
VH: QVQLVQSGAEVKKPGASVKVSCKTSGYTFTEYTMHWVRQAPGQSLEWMGGIDPNNANTHYNQKFQGRVTITVDKSASTAYMELSSLRSEDTAVYYCARIYYFGRLYFDFWGAGTLVTVSS
VL: DIQMTQSPSSLSASVGDRVTITCQASEDIYNRLAWYQQKPGKVPKLLISGATSLETGVPSRFSGSGSGKDYTFTISSLQPEDIATYYCQQYWSSPLTFGGGTKVEIKR
For the molecule B13, the EC50 with human CLDN6 turned out to be 0.978 µg/mL; with human CLDN9 it was 53.1 µg/mL.

B14: XENP35044 H2_L1.1 (antibody, V domains shown)
VH: EVQLVQSGAEVKKPGESLRISCKTSGYTFTEYTMHWVRQMPGKSLEWMGGIDPNNGNTHYNQKFQGHVTISVDKSISTAYLQWSSLKASDTAMYYCARIYYFGRLYFDFWGAGTLVTVSS
VL: DIQMTQSPSSLSASVGDRVTITCQASQDIYNRLAWYQQKPGKVPKLLISGATSLETGVPSRFSGSGSGKDYTFTISSLQPEDIATYYCQQYWSSPLTFGGGTKVEIKR
B14: the midpoint of the response with human CLDN6, the EC50, lay at 4.34 µg/mL.

B15: XENP35062 H2_L1.19 (antibody, V domains shown)
VH: EVQLVQSGAEVKKPGESLRISCKTSGYTFTEYTMHWVRQMPGKSLEWMGGIDPNNGNTHYNQKFQGHVTISVDKSISTAYLQWSSLKASDTAMYYCARIYYFGRLYFDFWGAGTLVTVSS
VL: DIQMTQSPSSLSASVGDRVTITCQASEDIYNRLAWYQQKPGKVPKLLISGASSLETGVPSRFSGSGSGKDYTFTISSLQPEDIATYYCQQYWSSPLTFGGGTKVEIKR
As for B15, the values for the EC50 with human CLDN6 and in the assay with human CLDN9 were 1.23 µg/mL and 86.8 µg/mL, respectively.

B16: XENP35102 having H2.9_L1 (antibody, V domains shown)
VH: EVQLVQSGAEVKKPGESLRISCKTSGYTFTEYTMHWVRQMPGKSLEWMGGIDPNNANTHYNQKFQGHVTISVDKSISTAYLQWSSLKASDTAMYYCARIYYFGRLYFDFWGAGTLVTVSS
VL: DIQMTQSPSSLSASVGDRVTITCQASEDIYNRLAWYQQKPGKVPKLLISGATSLETGVPSRFSGSGSGKDYTFTISSLQPEDIATYYCQQYWSSPLTFGGGTKVEIKR
For the molecule B16, the results for the EC50 with human CLDN6 and with human CLDN9 were 3.53 µg/mL and 1.43 µg/mL, respectively.

B17: XENP35100 H2.7_L1 (antibody, V domains shown)
VH: EVQLVQSGAEVKKPGESLRISCKTSGYTFTEYTMHWVRQMPGKSLEWMGGIDPNQGNTHYNQKFQGHVTISVDKSISTAYLQWSSLKASDTAMYYCARIYYFGRLYFDFWGAGTLVTVSS
VL: DIQMTQSPSSLSASVGDRVTITCQASEDIYNRLAWYQQKPGKVPKLLISGATSLETGVPSRFSGSGSGKDYTFTISSLQPEDIATYYCQQYWSSPLTFGGGTKVEIKR
For B17, the values for the EC50 in the assay with human CLDN6 and with human CLDN9 were 1.14 µg/mL and 63.5 µg/mL, respectively.

B18: XENP35061 H2_L1.18 (antibody, V domains shown)
VH: EVQLVQSGAEVKKPGESLRISCKTSGYTFTEYTMHWVRQMPGKSLEWMGGIDPNNGNTHYNQKFQGHVTISVDKSISTAYLQWSSLKASDTAMYYCARIYYFGRLYFDFWGAGTLVTVSS
VL: DIQMTQSPSSLSASVGDRVTITCQASEDIYNRLAWYQQKPGKVPKLLISGTTSLETGVPSRFSGSGSGKDYTFTISSLQPEDIATYYCQQYWSSPLTFGGGTKVEIKR
For the molecule B18, the figures for the EC50 with human CLDN6 and with human CLDN9 were 1.25 µg/mL and 56.3 µg/mL, respectively.

By EC50 is commonly meant the concentration at which the effect is half-maximal.
